From patent US20240270821A1, “GIP/GLP1/GCG TRI-RECEPTOR AGONISTS AND USES THEREOF” (priority 2023, published 2024)
Changes are numbered by the printed parent chain.

B1: Example 476 (peptide)
chain: YXQGTXTSDXXIXLDXKAQXXFIEYLIEGGPSSGEPPPEEG
modifications: synthetic construct; SITE 2: note = 2-Aminoisobutyric Acid; SITE 6: note = alpha-methyl-2-fluoro-L-phenylalanine; SITE 10: note = 3-(4-Pyridyl)-L-alanine; SITE 11: note = alpha-methyl-L-serine; SITE 13: note = alpha-methyl-leucine; SITE 16: note = L-ornithine; SITE 17: note = Lysine is chemically mo
B2: Example 474 (peptide)
chain: B1 chain with X21N, Y25X, P37E
modifications: synthetic construct; SITE 2: note = 2-Aminoisobutyric Acid; SITE 6: note = alpha-methyl-2-fluoro-L-phenylalanine; SITE 10: note = 3-(4-Pyridyl)-L-alanine; SITE 11: note = alpha-methyl-L-serine; SITE 13: note = alpha-methyl-leucine; SITE 16: note = L-ornithine; SITE 17: note = Lysine is chemically mo
B3: Example 473 (peptide)
chain: B1 chain with X21N, Y25X, P37E, E39S
modifications: synthetic construct; SITE 2: note = 2-Aminoisobutyric Acid; SITE 6: note = alpha-methyl-2-fluoro-L-phenylalanine; SITE 10: note = 3-(4-Pyridyl)-L-alanine; SITE 11: note = alpha-methyl-L-serine; SITE 13: note = alpha-methyl-leucine; SITE 16: note = L-ornithine; SITE 17: note = Lysine is chemically mo
B4: Example 477 (peptide)
chain: B1 chain with X11S
modifications: synthetic construct; SITE 2: note = 2-Aminoisobutyric Acid; SITE 6: note = alpha-methyl-2-fluoro-L-phenylalanine; SITE 10: note = 3-(4-Pyridyl)-L-alanine; SITE 13: note = alpha-methyl-leucine; SITE 16: note = L-ornithine; SITE 17: note = Lysine is chemically modified through conjugation of the epsil
B5: Example 466 (peptide)
chain: HXQGTXTSDXXIXLDXKAQXAFIEYLLEGGPSSGEPPPE
modifications: synthetic construct; SITE 2: note = 2-Aminoisobutyric Acid; SITE 6: note = alpha-methyl-2-fluoro-L-phenylalanine; SITE 10: note = 3-(4-Pyridyl)-L-alanine; SITE 11: note = alpha-methyl-L-serine; SITE 13: note = alpha-methyl-leucine; SITE 16: note = L-ornithine; SITE 17: note = Lysine is chemically mo
B6: Example 442 (peptide)
chain: YXQGTXTSDXSIXLDKKAQXAFIEYLEEGGPSSGEPPPS
modifications: synthetic construct; SITE 2: note = 2-Aminoisobutyric Acid; SITE 6: note = alpha-methyl-2-fluoro-L-phenylalanine; SITE 10: note = 3-(4-Pyridyl)-L-alanine; SITE 13: note = alpha-methyl-leucine; SITE 17: note = Lysine is chemically modified through conjugation of the epsilon-amino group of the Lysine
B7: Example 443 (peptide)
chain: B6 chain with E35A, P37E
modifications: synthetic construct; SITE 2: note = 2-Aminoisobutyric Acid; SITE 6: note = alpha-methyl-2-fluoro-L-phenylalanine; SITE 10: note = 3-(4-Pyridyl)-L-alanine; SITE 13: note = alpha-methyl-leucine; SITE 17: note = Lysine is chemically modified through conjugation of the epsilon-amino group of the Lysine
B8: Example 465 (peptide)
chain: B6 chain with S11X, X13L, E35A, S39E
modifications: synthetic construct; SITE 2: note = 2-Aminoisobutyric Acid; SITE 6: note = alpha-methyl-2-fluoro-L-phenylalanine; SITE 10: note = 3-(3-Pyridyl)-L-alanine; SITE 11: note = alpha-methyl-L-serine; SITE 17: note = Lysine is chemically modified through conjugation of the epsilon-amino group of the Lysine
B9: Example 464 (peptide)
chain: B6 chain with S11X, X13L, E35A, S39E
modifications: synthetic construct; SITE 2: note = 2-Aminoisobutyric Acid; SITE 6: note = alpha-methyl-2-fluoro-L-phenylalanine; SITE 10: note = 3-(4-Pyridyl)-L-alanine; SITE 11: note = alpha-methyl-L-serine; SITE 17: note = Lysine is chemically modified through conjugation of the epsilon-amino group of the Lysine
B10: Example 445 (peptide)
chain: B6 chain with E35A, S39E
modifications: synthetic construct; SITE 2: note = 2-Aminoisobutyric Acid; SITE 6: note = alpha-methyl-2-fluoro-L-phenylalanine; SITE 10: note = 3-(4-Pyridyl)-L-alanine; SITE 13: note = alpha-methyl-leucine; SITE 17: note = Lysine is chemically modified through conjugation of the epsilon-amino group of the Lysine
B11: Example 446 (peptide)
chain: B6 chain with E27S, E35A
modifications: synthetic construct; SITE 2: note = 2-Aminoisobutyric Acid; SITE 6: note = alpha-methyl-2-fluoro-L-phenylalanine; SITE 10: note = 3-(4-Pyridyl)-L-alanine; SITE 13: note = alpha-methyl-leucine; SITE 17: note = Lysine is chemically modified through conjugation of the epsilon-amino group of the Lysine
B12: Example 469 (peptide)
chain: B6 chain with X10Y, S11X, X13L, S39E
modifications: synthetic construct; SITE 2: note = 2-Aminoisobutyric Acid; SITE 6: note = alpha-methyl-2-fluoro-L-phenylalanine; SITE 11: note = alpha-methyl-L-serine; SITE 17: note = Lysine is chemically modified through conjugation of the epsilon-amino group of the Lysine side chain with (2-[2-(2-Amino-ethoxy)-e)

The binders below were run against hGLP-1R (Homo sapiens, UniProt P43220) (assay: cell-based or functional assay).
Chain of hGLP-1R (P43220 24-463): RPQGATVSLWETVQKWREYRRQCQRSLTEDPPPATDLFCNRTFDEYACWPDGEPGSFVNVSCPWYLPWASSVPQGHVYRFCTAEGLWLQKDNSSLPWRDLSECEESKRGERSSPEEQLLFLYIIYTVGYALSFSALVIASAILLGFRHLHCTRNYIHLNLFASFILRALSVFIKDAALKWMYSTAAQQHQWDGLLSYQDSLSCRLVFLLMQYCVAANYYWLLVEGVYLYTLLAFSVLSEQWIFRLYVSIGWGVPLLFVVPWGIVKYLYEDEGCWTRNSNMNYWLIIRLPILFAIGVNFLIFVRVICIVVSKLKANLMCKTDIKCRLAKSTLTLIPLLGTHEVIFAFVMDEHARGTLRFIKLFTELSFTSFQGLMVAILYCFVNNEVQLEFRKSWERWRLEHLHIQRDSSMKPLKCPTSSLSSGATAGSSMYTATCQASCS
B1 showed a Relative cAMP EC50, nM (0.1% casein) of 0.164 nM and a cAMP Rel EC50 (receptor-expressing HEK-293 cells, 1% HSA) of 14.6 nM. Binder B2 has a Relative cAMP EC50, nM (0.1% casein) of 0.236 nM and a cAMP Rel EC50 (receptor-expressing HEK-293 cells, 1% HSA) of 10.6 nM. B3 was tested, and the Relative cAMP EC50, nM (0.1% casein) was 0.173 nM and the cAMP Rel EC50 (receptor-expressing HEK-293 cells, 1% HSA) was 11.4 nM. Binder B4 has a Relative cAMP EC50, nM (0.1% casein) of 0.173 nM and a cAMP Rel EC50 (receptor-expressing HEK-293 cells, 1% HSA) of 18.7 nM. Binder B5 has a Relative cAMP EC50, nM (0.1% casein) of 0.207 nM and a cAMP Rel EC50 (receptor-expressing HEK-293 cells, 1% HSA) of 13.3 nM. B6 showed a Relative cAMP EC50 of 0.267 nM and a cAMP Rel EC50, nM (1% HSA) of 23.9 nM. B7 gave a Relative cAMP EC50 of 0.572 nM and a cAMP Rel EC50, nM (1% HSA) of 34.3 nM. Binder B8 has a Relative cAMP EC50, nM (0.1% casein) of 0.575 nM and a cAMP Rel EC50 (receptor-expressing HEK-293 cells, 1% HSA) of 56.3 nM. With B9 the Relative cAMP EC50, nM (0.1% casein) was 0.466 nM and the cAMP Rel EC50 (receptor-expressing HEK-293 cells, 1% HSA) was 45.5 nM. Binder B10 has a Relative cAMP EC50 of 0.731 nM and a cAMP Rel EC50, nM (1% HSA) of 23.2 nM. In the case of B11, the Relative cAMP EC50 is reported as 0.696 nM and the cAMP Rel EC50, nM (1% HSA) is reported as 24.5 nM. B12 showed a Relative cAMP EC50, nM (0.1% casein) of 0.562 nM and a cAMP Rel EC50 (receptor-expressing HEK-293 cells, 1% HSA) of 61.7 nM.

The binders below were run against T1, human GIP receptor (human) (UniProt P48546) (assay: cell-based or functional assay).
T1 sequence (looked up): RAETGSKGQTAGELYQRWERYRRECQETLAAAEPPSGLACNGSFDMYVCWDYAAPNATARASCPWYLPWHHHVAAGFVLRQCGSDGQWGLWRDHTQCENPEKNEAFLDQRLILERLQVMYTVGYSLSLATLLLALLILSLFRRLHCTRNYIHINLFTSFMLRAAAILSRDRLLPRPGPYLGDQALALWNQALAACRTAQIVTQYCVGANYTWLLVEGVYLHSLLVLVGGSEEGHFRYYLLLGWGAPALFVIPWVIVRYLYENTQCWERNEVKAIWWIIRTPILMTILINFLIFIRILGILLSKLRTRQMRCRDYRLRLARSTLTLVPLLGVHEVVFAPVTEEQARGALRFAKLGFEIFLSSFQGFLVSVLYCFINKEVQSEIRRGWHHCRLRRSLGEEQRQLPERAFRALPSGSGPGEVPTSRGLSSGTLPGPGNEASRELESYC
In the case of B1, the Relative cAMP EC50, nM (0.1% casein) is reported as 0.0131 nM and the cAMP Rel EC50 (receptor-expressing HEK-293 cells, 1% HSA) is reported as 1.29 nM. B2 was tested, and the Relative cAMP EC50, nM (0.1% casein) was 0.0125 nM and the cAMP Rel EC50 (receptor-expressing HEK-293 cells, 1% HSA) was 0.743 nM. In the case of B3, the Relative cAMP EC50, nM (0.1% casein) is reported as 0.0101 nM and the cAMP Rel EC50 (receptor-expressing HEK-293 cells, 1% HSA) is reported as 1.11 nM. In the case of B4, the Relative cAMP EC50, nM (0.1% casein) is reported as 0.0127 nM and the cAMP Rel EC50 (receptor-expressing HEK-293 cells, 1% HSA) is reported as 1.44 nM. B5 gave a Relative cAMP EC50, nM (0.1% casein) of 0.0466 nM and a cAMP Rel EC50 (receptor-expressing HEK-293 cells, 1% HSA) of 5.65 nM. Work on B6 yielded a Relative cAMP EC50 of 0.0237 nM and a cAMP Rel EC50, nM (1% HSA) of 1.81 nM. For B7, the Relative cAMP EC50 was 0.0291 nM and the cAMP Rel EC50, nM (1% HSA) was 1.57 nM. For B8, the Relative cAMP EC50, nM (0.1% casein) was 0.148 nM and the cAMP Rel EC50 (receptor-expressing HEK-293 cells, 1% HSA) was 44.6 nM. B9 gave a Relative cAMP EC50, nM (0.1% casein) of 0.072 nM and a cAMP Rel EC50 (receptor-expressing HEK-293 cells, 1% HSA) of 19.9 nM. B10 was tested, and the Relative cAMP EC50 was 0.0206 nM and the cAMP Rel EC50, nM (1% HSA) was 2.41 nM. With B11 the Relative cAMP EC50 was 0.0351 nM and the cAMP Rel EC50, nM (1% HSA) was 3.01 nM. For B12, the Relative cAMP EC50, nM (0.1% casein) was 0.031 nM and the cAMP Rel EC50 (receptor-expressing HEK-293 cells, 1% HSA) was 4.24 nM.

What follows are binders tested against human glucagon receptor (human) (UniProt P47871) (assay: cell-based or functional assay).
Chain of human glucagon receptor (human) (P47871 26-477): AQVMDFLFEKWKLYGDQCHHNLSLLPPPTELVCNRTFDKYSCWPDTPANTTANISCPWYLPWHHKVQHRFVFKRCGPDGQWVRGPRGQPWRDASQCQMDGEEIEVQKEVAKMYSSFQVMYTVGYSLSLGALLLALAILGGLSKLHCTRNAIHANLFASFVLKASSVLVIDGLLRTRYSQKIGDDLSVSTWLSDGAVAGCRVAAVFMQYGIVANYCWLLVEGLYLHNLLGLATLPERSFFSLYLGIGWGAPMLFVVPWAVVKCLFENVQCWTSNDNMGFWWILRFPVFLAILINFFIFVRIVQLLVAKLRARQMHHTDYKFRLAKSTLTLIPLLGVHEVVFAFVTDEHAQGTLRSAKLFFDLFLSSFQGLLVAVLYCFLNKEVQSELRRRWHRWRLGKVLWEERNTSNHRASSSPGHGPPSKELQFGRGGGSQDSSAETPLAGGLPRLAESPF
B1 was tested, and the Relative cAMP EC50, nM (0.1% casein) was 1.34 nM and the cAMP Rel EC50 (receptor-expressing HEK-293 cells, 1% HSA) was 90.2 nM. B2 was tested, and the Relative cAMP EC50, nM (0.1% casein) was 3.88 nM and the cAMP Rel EC50 (receptor-expressing HEK-293 cells, 1% HSA) was 166 nM. B3 showed a Relative cAMP EC50, nM (0.1% casein) of 2.72 nM and a cAMP Rel EC50 (receptor-expressing HEK-293 cells, 1% HSA) of 311 nM. B4 gave a Relative cAMP EC50, nM (0.1% casein) of 5.26 nM and a cAMP Rel EC50 (receptor-expressing HEK-293 cells, 1% HSA) of 716 nM. With B5 the Relative cAMP EC50, nM (0.1% casein) was 5.84 nM and the cAMP Rel EC50 (receptor-expressing HEK-293 cells, 1% HSA) was 348 nM. In the case of B6, the Relative cAMP EC50 is reported as 5.66 nM and the cAMP Rel EC50, nM (1% HSA) is reported as 342 nM. Binder B7 has a Relative cAMP EC50 of 6.09 nM and a cAMP Rel EC50, nM (1% HSA) of 265 nM. Binder B8 has a Relative cAMP EC50, nM (0.1% casein) of 1.5 nM and a cAMP Rel EC50 (receptor-expressing HEK-293 cells, 1% HSA) of 233 nM. For B9, the Relative cAMP EC50, nM (0.1% casein) was 1.25 nM and the cAMP Rel EC50 (receptor-expressing HEK-293 cells, 1% HSA) was 194 nM. B10 gave a Relative cAMP EC50 of 10.1 nM and a cAMP Rel EC50, nM (1% HSA) of 448 nM. Binder B11 has a Relative cAMP EC50 of 8.34 nM and a cAMP Rel EC50, nM (1% HSA) of 516 nM. Binder B12 has a Relative cAMP EC50, nM (0.1% casein) of 1.34 nM and a cAMP Rel EC50 (receptor-expressing HEK-293 cells, 1% HSA) of 155 nM.
